Key:
PARylated PARP-1 = PARylated PARP-1 (Homo sapiens, UniProt P09874); experiment: In vitro ADP-ribosylation assay with ARBD-ddGFP pairs, recombinant PARP-1; assay type: biochemical; conditions: ARBD fused to ddGFP-A/B, recombinant proteins
Excerpt: Dimerization-dependent GFP is a genetically encoded sensor that was initially developed to study protein interactions. In this system, a pair of a quenched GFP (ddGFPA) and a non-fluorogenic GFP (ddGFPB) form a heterodimer that can result in improved fluorescence. In this example, a ddGFP-based fluorescence sensor (fluorescent PAR-Trackers or PAR-T) was designed to allow for live cell imaging, with high signal-noise ratio. To achieve this, the various ADPR reader domains (ARBDs) were fused to ddGFP-A/B and purified as recombinant proteins (FIG. 1A, FIG. 1B, FIG. 6A). In vitro ADP-ribosylation assays were performed using recombinant PARP-1 (to detect PAR) and PARP-3 (to detect MAR) specifically (FIG. 6B and FIG. 6C). […] These reagents recognized PARylated-PARP-1 but not MARylated PARP-3, or the precursors of ADPR (FIG. 1C). Accordingly, the utility of these reagents was further tested in in vitro PARP-1 PARylation reactions with increasing concentrations of NAD+(FIGS. 6F and 6G) and increasing time of reaction (FIG. 1D and FIG. 1E). Similarly, degradation of PAR chains by ARH3 was detected in a time (FIG. 1F and FIG. 1G) and dose (FIG. 6H) dependent way. Further, in vitro reactions were performed by incubating the recombinant PAR-T sensors and lysates from Hela cells treated with H2O2 to induce DNA damage and activate PARP-1.

PARP-1 activation = experiment: Live cell imaging with ddGFP PAR-T after H2O2-mediated PARP-1 activation; assay type: cell-based; conditions: cells treated with H2O2, compared to ddGFP alone
Method: Cells were treated with various inhibitors as described herein. For inhibition of nuclear PARPs, cells were treated with PJ-34 ([…]; Enzo, ALX-270) or Olaparib (20 µM; MedChem Express, HY-10162) for 2 hours. For inhibition of PARG, cells were treated with PDD 00017273 (20 µM; MedChem Express, HY-108360) for 2 hours. For UV-induced DNA damage, the cells were harvested 15 minutes after treatment with 50 mJ/cm2 UV irradiation.
Having confirmed the specificity of the PAR-T sensors, their utility in live cell imaging was then tested. PAR-T sensors were expressed in Hela cells in a doxycycline-dependent manner and live cell imaging performed after subjecting the cells to H2O2-mediated PARP-1 activation (FIG. 7A). This PAR-T construct also expresses mCherry with nuclear localization signal (NLS) to illuminate the nuclei and act as a control for variability in expression of the constructs (FIG. 7A). […] Using the WWE-based ddGFP PAR-T construct, accumulation of PAR after H2O2-treatment was detected in real time.
Next, a set of assays was performed to compare the performance of the PAR-T sensors to conventional PAR detection reagents (WWE-Fc and PAR antibody) in a variety of assays. […]

Sequence of PARylated PARP-1 (P09874 whole entry, the tested form may be a part): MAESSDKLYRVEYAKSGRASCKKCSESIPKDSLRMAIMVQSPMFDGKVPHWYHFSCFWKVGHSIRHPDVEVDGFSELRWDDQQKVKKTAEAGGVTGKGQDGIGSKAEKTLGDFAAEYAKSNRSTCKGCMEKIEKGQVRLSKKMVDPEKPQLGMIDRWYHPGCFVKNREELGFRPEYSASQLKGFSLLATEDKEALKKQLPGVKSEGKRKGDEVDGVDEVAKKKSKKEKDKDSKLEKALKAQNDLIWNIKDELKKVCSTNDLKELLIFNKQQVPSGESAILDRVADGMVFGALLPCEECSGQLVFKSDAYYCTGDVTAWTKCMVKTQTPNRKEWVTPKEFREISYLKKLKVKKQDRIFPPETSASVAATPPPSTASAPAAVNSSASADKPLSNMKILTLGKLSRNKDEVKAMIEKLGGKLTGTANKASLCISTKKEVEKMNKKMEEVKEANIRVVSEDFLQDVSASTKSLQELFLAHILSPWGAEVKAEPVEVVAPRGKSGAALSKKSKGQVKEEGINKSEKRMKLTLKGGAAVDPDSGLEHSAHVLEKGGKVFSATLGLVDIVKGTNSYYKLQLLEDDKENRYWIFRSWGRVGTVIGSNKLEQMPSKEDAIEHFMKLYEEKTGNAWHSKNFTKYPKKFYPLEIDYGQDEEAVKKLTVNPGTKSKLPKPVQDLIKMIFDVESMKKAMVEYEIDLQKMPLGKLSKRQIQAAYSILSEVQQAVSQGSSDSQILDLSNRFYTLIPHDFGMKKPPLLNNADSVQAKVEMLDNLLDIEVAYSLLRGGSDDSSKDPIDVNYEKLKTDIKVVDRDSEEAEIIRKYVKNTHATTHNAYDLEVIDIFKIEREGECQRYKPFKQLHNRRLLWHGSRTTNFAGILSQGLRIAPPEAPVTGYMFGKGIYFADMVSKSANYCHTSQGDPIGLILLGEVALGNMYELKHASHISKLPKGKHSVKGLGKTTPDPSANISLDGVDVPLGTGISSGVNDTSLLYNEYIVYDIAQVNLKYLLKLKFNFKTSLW

B1: macrodomain from AF1521: macrodomain from AF1521 fused to ddGFP-A/B, recombinant ARBD-ddGFP pair (protein, listed as Archaeoglobus fulgidus)
chain: MERRTLIMEVLFEAKVGDITLKLAQGDITQYPAKAIVNAANKRLEHGGGVAYAIAKACAGDAGLYTEISKKAMREQFGRDYIDHGEVVVTPAMNLEERGIKYVFHTVGPICSGMWSEELKEKLYKAFLGPLEKAEEMGVESIAFPAVSAGIYGCDLEKVVETFLEAVKNFKGSAVKEVALVIYDRKSAEVALKVFERSL
PARylated PARP-1
  recognizing PARylated PARP-1 (fluorescence): performed well
PARylated PARP-1; listed as macrodomain
  recognizing PARylated PARP-1 (fluorescence): worked better

B2: WWE-macrodomain combination sensor: ddGFP sensor pair combining WWE domain from RNF146 and macrodomain from AF1521 (protein)
chain 1: MGNGEYAWYYEGRNGWWQYDERTSRELEDAFSKGKKNTEMLIAGFLYVADLENMVQYRRNEHGRRRKIKRDIIDIPKKGVAGLR
chain 2: MERRTLIMEVLFEAKVGDITLKLAQGDITQYPAKAIVNAANKRLEHGGGVAYAIAKACAGDAGLYTEISKKAMREQFGRDYIDHGEVVVTPAMNLEERGIKYVFHTVGPICSGMWSEELKEKLYKAFLGPLEKAEEMGVESIAFPAVSAGIYGCDLEKVVETFLEAVKNFKGSAVKEVALVIYDRKSAEVALKVFERSL
modifications: left off: small tags and cut ends
notes: ddGFP sensor pair combining WWE domain from RNF146 and macrodomain from AF1521
PARylated PARP-1
  recognizing PARylated PARP-1 (fluorescence): able to detect PARylation in vitro
PARP-1 activation
  detection of PARP-1 activation / PARylation in live cell imaging: failed to recognize PARylation in cells

B3: PAR-T ddGFP: WWE domain from RNF146 fused to dimerization-dependent GFP monomers ddGFP-A and ddGFP-B (protein)
chain 1: MGHHHHHHHHHHSSGHIDDDDKHMLEGNGEYAWYYEGRNGWWQYDERTSRELEDAFSKGKKNTEMLIAGFLYVADLENMVQYRRNEHGRRRKIKRDIIDIPKKGVAGLRLEFSTGHGTGSTGSGSSGTASSESTGSSMASKSEEVIKEFMRFKVRLEGSMNGHEFEIEGEGEGRPYEGTQTAKLKVTKGGPLPFAWDILSPLIMYGSKMYVKHPADVPDYMKLSFPEGFKWERVMHFEDGGLVTATQDSSLQDGTLIYKVKMRGTNFPPDGPVMQKKTLGWDYATERLYPEEGVLKGELLGRLKLKDGGLNLVESKTIYMAKKPVQLPGYYFVDTKLDITSHNEDYTIVEQYERSEGRHHLGH
chain 2: MGHHHHHHHHHHSSGHIDDDDKHMLEGNGEYAWYYEGRNGWWQYDERTSRELEDAFSKGKKNTEMLIAGFLYVADLENMVQYRRNEHGRRRKIKRDIIDIPKKGVAGLRLEFSTGHGTGSTGSGSSGTASSESTGSSTIKEFMRFKVRMEGSMNGHEFEIEGEGEGRPYEGTQTAKLKVTKGGPLPFAWDILSPQIMYGSKAYVRHPADIPDYKKLPFPEGFKWERVMNFEDGGLVTVTQDSSLQDGTLICKVKIRGTNFPPDGPVMQKKTMGWEASTEMLYPKDGVLKGHSYQALKLKDGGHYLVEFETIYMAKKPVQLPGDYCVDTKLDITSHNEDYTIVEQYGRSEGRHRLGMDERYK
PARylated PARP-1; listed as WWE domain
  recognizing PARylated PARP-1 (fluorescence): worked better
PARylated PARP-1; listed as WWE domain from RNF146
  recognizing PARylated PARP-1 (fluorescence): performed well
PARP-1 activation
  detection of PARP-1 activation / PARylation in live cell imaging: detected PARP-1 activation

— US20240252689A1, “POLY-ADP RIBOSE (PAR) TRACKER OPTIMIZED SPLIT-PROTEIN REASSEMBLY PAR DETECTION REAGENTS” (THE BOARD OF REGENTS OF THE UNIVERSITY OF TEXAS SYSTEM, priority 2021, published 2024)
